As usually defined, the Kd is the concentration at which binding is half-saturated. A lower Kd goes with higher affinity.

This series deals with alpha-thrombin (human, UniProt P00734;P00734 328-363;364-622). Description: SPR. For orientation: In SPR one partner is held on a chip, and binding of the other changes the refractive index at the surface.

The molecule CCUUUGGUUCGGAUAAUUAUUAAGUAUUGUCUUCAUUCA (structured_RNA, RNA (U for T); 2'-F C and U, 2'-OH A and G) [Tbn#3] had a Kd of 1.4 nM.

The molecule UGAGGUGUUUGGGGUACUACUGGUAAAGGAUUUUCAUCUA (structured_RNA, RNA (U for T); 2'-F C and U, 2'-OH A and G) [Tbn#6] returned a Kd of 1.7 nM.

These data come from PMC6994090.
